# Measured values taken from PMC3017119, “Structural Basis for the Recognition of Cellular mRNA Export Factor REF by Herpes Viral Proteins HSV-1 ICP27 and HVS ORF57” (PLoS Pathogens, 2011).
# B1: ICP27^1–138 (recombinant, for NMR) (domain or fragment)
# chain: MATDIDMLIDLGLDLSDSDLDEDPPEPAESRRDDLESDSSGECSSSDEDMEDPHGEDGPEPILDAARPAVRPSRPEDPGVPSTQTPRPTERQGPNDPQPAPHSVWSRLGARRPSCSPEQHGGKVARLQPPPTKAQPAR
# notes: HSV-1 ICP27, residues 1-138
# B2: HVS ORF57^8–120 (recombinant, for NMR) (domain or fragment)
# chain: GISSDDDFDSSDSSSDEEESDTSPQIMKSDVTMASPPSTPEPSPDVSASTSNLKRERQRSPITWEHQSPLSRVYRSPSPMRFGKRPRISSNSTSRSCKTSWADRVREAAAQRR
# B3: REF^54–155 (recombinant, for NMR) (domain or fragment)
# chain: not shown
# notes: 15N- or 13C/15N-labelled or unlabelled, by experiment; also called Δ53N
# Key:
# Settings in all cases: both partners purified
# [1] = molecular target: REF^1–155 (recombinant, for NMR) (murine, UniProt Q9JJW6 1-155); assay: NMR titration
# [2] = molecular target: B3; assay: NMR titration; […]; 30°C; […], pH 6.2
# [3] = molecular target: B1; assay: NMR titration
# HVS ORF57^103–120 V112A = molecular target: T1, HVS ORF57^103–120 V112A (Herpesvirus Saimiri, V112A (stands in the printed letters)); assay: NMR titration; […]; 30°C; […], pH 6.2
# T1 construct: source: synthetic peptide (Peptide Protein Research Ltd)
# HVS ORF57^103–120 R111A = molecular target: T2, HVS ORF57^103–120 R111A (Herpesvirus Saimiri, R111A (stands in the printed letters)); assay: NMR titration; […]; 30°C; […], pH 6.2
# T2 construct: source: synthetic peptide (Peptide Protein Research Ltd)
# ICP27^103–112 W105A = molecular target: T3, ICP27^103–112 W105A (Herpes simplex virus 1, W105A (stands in the printed letters)); assay: NMR titration; […]; 30°C; […], pH 6.2
# T3 construct: also called mutant peptide W105A; source: synthetic peptide (Peptide Protein Research Ltd)
# [4] = molecular target: B2; assay: NMR titration; […]; 30°C; […], pH 6.2
# ICP27^103–112 R107A = molecular target: T4, ICP27^103–112 R107A (Herpes simplex virus 1, R107A (stands in the printed letters)); assay: NMR titration; […]; 30°C; […], pH 6.2
# T4 construct: source: synthetic peptide (Peptide Protein Research Ltd)
# HVS ORF57^103–120 W108A = molecular target: T5, HVS ORF57^103–120 W108A (Herpesvirus Saimiri, W108A (stands in the printed letters)); assay: NMR titration; […]; 30°C; […], pH 6.2
# T5 construct: source: synthetic peptide (Peptide Protein Research Ltd)
# ICP27^103–112 L108A = molecular target: T6, ICP27^103–112 L108A (Herpes simplex virus 1, L108A (stands in the printed letters)); assay: NMR titration; […]; 30°C; […], pH 6.2
# T6 construct: source: synthetic peptide (Peptide Protein Research Ltd)
binder,measurement,setting,value
B1,binding result,[1],binds
B2,binding result,[1],binds
NRYGKKIKFGT (also called KSHV-ORF57^100–110 peptide; source: synthetic peptide (Peptide Protein Research Ltd)) [KSHV ORF57^100–110],Kd,[2],> 100000 µM
"SVWSRLGARR (HSV-1 ICP27, residues 103-112; the dash in the printed line is an alignment gap; also called WT ICP27^103–112 peptide; source: synthetic peptide (Peptide Protein Research Ltd)) [ICP27^103–112]",Kd,[2],99 ± 30 µM
"SVWSRLGA (HSV-1 ICP27, residues 103-110; the dash in the printed line is an alignment gap; also called WT ICP27^103–110 peptide; source: synthetic peptide (Peptide Protein Research Ltd)) [ICP27^103–110]",Kd,[2],25 ± 7 µM
B3,binding result,[3],binds
same,Kd,HVS ORF57^103–120 V112A,156 ± 32 µM
same,Kd,HVS ORF57^103–120 R111A,254 ± 50 µM
same,Kd,ICP27^103–112 W105A,550 ± 210 µM
same,Kd,[4],78 ± 12 µM
same,Kd,ICP27^103–112 R107A,> 10000 µM
same,Kd,HVS ORF57^103–120 W108A,> 7500 µM
same,Kd,ICP27^103–112 L108A,> 5000 µM
KTSWADRVREA (also called WT HVS-ORF57^105–115; WT-ORF57^105–115; source: synthetic peptide (Peptide Protein Research Ltd)) [HVS ORF57^105–115],Kd,[2],> 1000 µM
SCKTSWADRVREAAAQRR (also called WT HVS-ORF57^103–120; source: synthetic peptide (Peptide Protein Research Ltd)) [HVS ORF57^103–120],Kd,[2],45 ± 15 µM
"GPLGSVWSRLGARRPSCSPEQHGGKVARLQPPPTKAQPAR (remainder of the PreScission protease cleavage site; HSV-1 ICP27, residues 103-138; also called WT-ICP27^103–138; ICP27^103–138 WT peptide; source: expressed as GST-fusion from pGEX-6P-1, cleaved by PreScission protease on GSH resin, purified (Sephacryl S-100 HR); not shown: GST, N-terminal, cleaved) [ICP27^103–138]",Kd,[2],28 ± 8.7 µM
"GPLGSVWSRLGARRPECSPEQHGGKVARLQPPPTKAQPAR (remainder of the PreScission protease cleavage site; HSV-1 ICP27, residues 103-138 with S114E (mimic of phosphoserine 114); source: expressed as GST-fusion from pGEX-6P-1, cleaved by PreScission protease on GSH resin, purified (Sephacryl S-100 HR); not shown: GST, N-terminal, cleaved) [ICP27^103–138 S114E]",Kd,[2],17 ± 7.9 µM
TGYARIERGHRR (also called VZV-ORF4^108–119 peptide; source: synthetic peptide (Peptide Protein Research Ltd)) [VZV ORF4^108–119],Kd,[2],> 1000 µM
